Experimental data as given in US20140113854A1 (NATIONAL RESEARCH COUNCIL OF CANADA, published 2014).
Positions of bridges follow the written chain, without caps; N, C: chain ends. Non-standard residues stand in square brackets, D forms with d. Chains are numbered I, II in the order given. No end group written: not given here. *: point of attachment. Benzenesulfonyl(4-tBu) = CC(C)(C)c1ccc(S(=O)(=O)*)cc1; dPip = O=C(O)[C@H]1CCCCN1

What was measured:
Human α-thrombin [1] = molecular target: T1, Human α-thrombin (human, UniProt P00734 328-363; P00734 364-622); assay: thrombin inhibition, 37 °C
Human α-thrombin [2] = molecular target: T1, Human α-thrombin; assay: enzyme kinetics, thrombin-catalysed chromogenic substrate hydrolysis, 37 °C
Human α-thrombin [3] = molecular target: T1, Human α-thrombin; assay: enzyme kinetics, thrombin-catalysed chromogenic substrate hydrolysis, 37 °C, 50 s window
Human α-thrombin [4] = molecular target: T1, Human α-thrombin; assay: cell-based or functional assay
Human α-thrombin [5] = molecular target: T1, Human α-thrombin; assay: cell-based or functional assay; remark: listed apart in the source
Human α-thrombin [6] = molecular target: T1, Human α-thrombin; assay: cell-based or functional assay; remark: listed apart in the source
rat-tail collagen type I [7] = molecular target: T2, rat-tail collagen type I (rat, UniProt P02454 152-1207; P02466 86-1125); assay: deuterium NMR of collagen gel formed with the peptide; called a semi-quantitative indication of peptide-collagen binding
T2 construct: Used in solution and as randomly deposited or partially aligned hydrogel; Human collagen gels were also prepared; also called collagen hydrogel; rat collagen

Human α-thrombin [8] = molecular target: T1, Human α-thrombin; assay: inhibition of human α-thrombin
rat-tail collagen type I [9] = molecular target: T2, rat-tail collagen type I; assay: proton NMR and deuterium coupling constant of collagen gel
Human α-thrombin [10] = molecular target: T1, Human α-thrombin; assay: derived from Ki and punfold (KD = Ki x popen), S-2366 kinetics, 37 °C
Excerpt: (§1) Human α-thrombin was purchased from Haemotologic Technologies, Inc., VT, USA.

Human α-thrombin [11] = molecular target: T1, Human α-thrombin; assay: cell-based or functional assay; remark: listed apart in the source
Human α-thrombin [12] = molecular target: T1, Human α-thrombin; assay: inhibition of thrombin-catalysed hydrolysis of chromogenic substrate S-2366, 25 °C
Excerpt: as §1

Human α-thrombin [13] = molecular target: T1, Human α-thrombin; assay: inhibition of thrombin-catalysed hydrolysis of chromogenic substrate S-2366, 37 °C
Excerpt: as §1

Human α-thrombin [14] = molecular target: T1, Human α-thrombin; assay: inhibition of thrombin by monovalent active-site moiety; conditions not given at the table
rat-tail collagen type I [15] = molecular target: T2, rat-tail collagen type I; assay: NMR in collagen hydrogel
Human α-thrombin [16] = molecular target: T1, Human α-thrombin; assay: inhibition of thrombin-catalysed hydrolysis of chromogenic substrate S-2366, 37 °C; remark: listed apart in the source

T2 sequence (P02454 152-1207 limits assumed, chain 1 of 2): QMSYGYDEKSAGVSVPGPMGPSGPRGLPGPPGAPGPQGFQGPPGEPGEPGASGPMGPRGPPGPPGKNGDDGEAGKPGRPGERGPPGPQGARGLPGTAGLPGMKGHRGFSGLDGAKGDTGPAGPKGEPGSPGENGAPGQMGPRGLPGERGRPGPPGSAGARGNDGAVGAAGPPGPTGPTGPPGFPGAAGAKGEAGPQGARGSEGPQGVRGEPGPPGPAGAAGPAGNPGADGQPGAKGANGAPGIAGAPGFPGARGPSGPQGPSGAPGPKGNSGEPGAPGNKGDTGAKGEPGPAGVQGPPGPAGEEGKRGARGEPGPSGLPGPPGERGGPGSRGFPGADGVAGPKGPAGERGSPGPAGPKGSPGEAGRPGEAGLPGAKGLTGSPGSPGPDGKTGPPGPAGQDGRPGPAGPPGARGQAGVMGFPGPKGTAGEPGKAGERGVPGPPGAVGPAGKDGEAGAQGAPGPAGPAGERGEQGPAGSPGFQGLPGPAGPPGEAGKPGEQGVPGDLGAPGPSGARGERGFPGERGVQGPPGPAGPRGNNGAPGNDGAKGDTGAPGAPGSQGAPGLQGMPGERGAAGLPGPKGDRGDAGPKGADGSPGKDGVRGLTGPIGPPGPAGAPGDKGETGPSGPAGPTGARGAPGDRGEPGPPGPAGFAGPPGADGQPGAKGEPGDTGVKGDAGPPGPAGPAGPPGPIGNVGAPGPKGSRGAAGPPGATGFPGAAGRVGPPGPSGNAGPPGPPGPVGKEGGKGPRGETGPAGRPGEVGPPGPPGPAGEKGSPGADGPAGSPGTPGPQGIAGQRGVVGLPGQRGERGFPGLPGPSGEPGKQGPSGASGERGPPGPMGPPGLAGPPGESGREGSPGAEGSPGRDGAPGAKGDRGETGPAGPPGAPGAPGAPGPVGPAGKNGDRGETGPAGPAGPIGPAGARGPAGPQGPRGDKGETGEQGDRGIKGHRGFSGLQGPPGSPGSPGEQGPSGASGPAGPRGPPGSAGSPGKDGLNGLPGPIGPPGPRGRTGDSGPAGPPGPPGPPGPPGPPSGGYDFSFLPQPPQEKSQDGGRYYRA
T2 sequence (P02466 86-1125 limits assumed, chain 2 of 2): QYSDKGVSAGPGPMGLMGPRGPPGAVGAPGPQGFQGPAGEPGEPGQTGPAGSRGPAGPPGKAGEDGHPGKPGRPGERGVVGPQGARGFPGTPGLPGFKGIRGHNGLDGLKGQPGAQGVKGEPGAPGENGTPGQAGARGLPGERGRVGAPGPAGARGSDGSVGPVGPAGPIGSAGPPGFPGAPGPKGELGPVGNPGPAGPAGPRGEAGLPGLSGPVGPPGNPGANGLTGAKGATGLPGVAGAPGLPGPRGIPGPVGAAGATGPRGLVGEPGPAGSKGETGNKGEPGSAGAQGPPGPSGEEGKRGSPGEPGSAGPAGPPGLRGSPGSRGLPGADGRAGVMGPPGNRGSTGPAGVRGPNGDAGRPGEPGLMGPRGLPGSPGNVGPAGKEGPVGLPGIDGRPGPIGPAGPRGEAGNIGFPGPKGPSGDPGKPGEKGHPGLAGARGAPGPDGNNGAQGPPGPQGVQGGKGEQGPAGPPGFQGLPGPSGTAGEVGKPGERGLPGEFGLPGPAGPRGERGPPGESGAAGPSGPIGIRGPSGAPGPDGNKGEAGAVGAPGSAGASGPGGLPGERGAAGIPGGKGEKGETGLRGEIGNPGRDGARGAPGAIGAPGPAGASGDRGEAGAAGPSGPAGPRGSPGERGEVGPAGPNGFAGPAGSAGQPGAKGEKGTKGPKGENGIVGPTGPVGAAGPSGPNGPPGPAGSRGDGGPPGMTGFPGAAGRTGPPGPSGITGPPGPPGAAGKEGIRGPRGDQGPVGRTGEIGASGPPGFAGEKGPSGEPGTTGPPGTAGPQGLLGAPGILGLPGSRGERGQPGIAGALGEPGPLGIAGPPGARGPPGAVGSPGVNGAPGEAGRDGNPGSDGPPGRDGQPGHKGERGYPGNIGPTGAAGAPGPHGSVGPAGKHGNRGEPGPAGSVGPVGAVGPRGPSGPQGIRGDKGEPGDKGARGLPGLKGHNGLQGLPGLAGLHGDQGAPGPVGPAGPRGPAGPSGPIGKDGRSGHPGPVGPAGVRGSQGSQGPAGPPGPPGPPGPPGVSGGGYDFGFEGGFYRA

B1: BRI-T208 (peptide)
peptide: [dF]PRPRFTDGEWTWDDATKTWTWTEGDFEEIPEEYL
modifications: ends and bridges not checked
notes: also called P4229
fold reduction of Ki as compared to BRI-T207 (Human α-thrombin [1]): ~13 fold
fold reduction of Ki as compared to MH2-wZIP4 (Human α-thrombin [1]): ~5 fold
Ki (Human α-thrombin [2]): 28 nM

B2: BRI-T218 (peptide)
peptide: [dF]PRIRFTDGEWTWDDATKTWTWTEGDFEEIPEEYL
modifications: ends and bridges not checked
notes: also called P4238
Ki (Human α-thrombin [3]): 14 nM

B3: MH2-wZIP4 (peptide)
peptide: IRFTDGEWTWDDATKTWTWTEGDFEEIPEEYLQ
modifications: ends and bridges not checked; also: 15N-labelled
IC50, fibrinogen clotting assay, 25 °C (Human α-thrombin [4]): 245 nM
IC50, fibrinogen clotting assay, 37 °C (Human α-thrombin [4]): 154 nM
IC50, fibrinogen clotting assay, 42 °C (Human α-thrombin [4]): 148 nM
KI (Thrombin Inhibition); IC50 by the clotting assay, 37 °C (Human α-thrombin [5]): 154 nM
IC50, T = 37° C. (Human α-thrombin [6]): 154 nM

B4: MH2-gb1 (peptide)
peptide: IRFTDGEWTYDDATKTFTVTEGDFEEIPEEYLQ
modifications: ends and bridges not checked
IC50, fibrinogen clotting assay, 25 °C (Human α-thrombin [4]): 49 nM
IC50, fibrinogen clotting assay, 37 °C (Human α-thrombin [4]): 86 nM

B5: BRI-T109 (peptide)
peptide: PRFTDGEWTWDDATKTWTWTEGDFEEIPEEYLQ
notes: MH2-wZIP4 with the first residue Ile replaced by Pro; also called P4230
Ki (Human α-thrombin [2]): 1450 nM

B6: MH2-wZIP6 (peptide)
peptide: IRFTDGEWTWDDATKTWTVTEGDFEEIPEEYLQ
IC50, fibrinogen clotting assay, 25 °C (Human α-thrombin [4]): 47 nM
IC50, fibrinogen clotting assay, 37 °C (Human α-thrombin [4]): 53 nM
KI (Thrombin Inhibition); IC50 by the clotting assay, 37 °C (Human α-thrombin [5]): 53 nM

B7: MH2-wZIP5 (peptide)
peptide: IRFTDGEWTYDDATKTFTWTEGDFEEIPEEYLQ
IC50, fibrinogen clotting assay, 25 °C (Human α-thrombin [4]): 80 nM
IC50, fibrinogen clotting assay, 37 °C (Human α-thrombin [4]): 107 nM
KI (Thrombin Inhibition); IC50 by the clotting assay, 37 °C (Human α-thrombin [5]): 107 nM

B8: trpzip4-NH2 (peptide)
peptide: GEWTWDDATKTWTWTE-NH2
notes: Isolated linker peptide
reduction of the deuterium coupling constant (collagen fibril alignment) (rat-tail collagen type I [7]): > 1 Hz

B9: trpzip6-NH2 (peptide)
peptide: GEWTWDDATKTWTVTE-NH2
notes: Isolated linker peptide
reduction of the deuterium coupling constant (collagen fibril alignment) (rat-tail collagen type I [7]): < 0.5 Hz

B10: MH2-wZIP1-2G (peptide)
peptide: IRFTDGGSWTWEGNKWTWKGGDFEEIPEEYLQ
notes: also called P4268
Ki (Human α-thrombin [2]): 16.6 nM

B11: TWE1 (peptide)
peptide 1: {Benzenesulfonyl(4-tBu)}-R[dPip]GC
peptide 2: CGSGSGSGSGSGSGSGSGDFEEIPEEYLQ
modifications: disulfide I:4-II:1; ends not checked; also: uniformly 15N-labelled
notes: Analog of BTI1 in which the two parts are joined by a disulfide bond
Ki (Human α-thrombin [8]): 2.2 nM

B12: trpzip5-NH2 (peptide)
peptide: GEWTYDDATKTFTWTE-NH2
notes: Isolated linker peptide
reduction of the deuterium coupling constant (collagen fibril alignment) (rat-tail collagen type I [7]): < 0.5 Hz

B13: gb1-NH2 (peptide)
peptide: GEWTYDDATKTFTVTE-NH2
notes: Isolated linker peptide
binding result (rat-tail collagen type I [9]): no binding

B14: BTI2 (peptide)
peptide: XRXGEWTYDDATKTFTVTEGDFEEIPEEYLQ
modifications: N-terminal Bbs (4-tert-butyl-benzenesulfonyl) on Arg; D-pipecolic acid (D-Pip) after Arg
notes: gb1 linker
Kd (Human α-thrombin [10]): 2.8 nM

B15: BTI4 (peptide)
peptide: XRXGEWTYDDATKTFTWTEGDFEEIPEEYLQ
modifications: N-terminal Bbs (4-tert-butyl-benzenesulfonyl) on Arg; D-pipecolic acid (D-Pip) after Arg
Kd (Human α-thrombin [10]): 2.8 nM

B16: MH2-wZIP1 (peptide)
peptide: IRFTDGSWTWEGNKWTWKGDFEEIPEEYLQ
notes: also called P4269
Ki (Human α-thrombin [2]): 18.4 nM

B17: MH2 (peptide)
peptide: IRFTDGEGTPNPESHNNGDFEEIPEEYLQ
modifications: ends and bridges not checked; also: uniformly 15N-labelled
notes: Linker HV2(42-53); Uniformly 15N-labelled for the NMR work; also called mini-hirudin 2
IC50 (assay not given) (Human α-thrombin [11]): ~14 nM
IC50, T = 37° C. (Human α-thrombin [6]): 14 nM
Ki (Human α-thrombin [12]): 34 nM
Ki (Human α-thrombin [13]): 67 nM

B18: IRFTDG (peptide)
peptide: IRFTDG
notes: Monovalent active-site moiety
Ki (Human α-thrombin [14]): 7000 nM

B19: MH2-allGS (peptide)
peptide: IRFTDGSGSGSGSGSGSGDFEEIPEEYLQ
modifications: ends and bridges not checked
notes: (GS)6 linker
Ki (Human α-thrombin [2]): 58 nM
Ki (Human α-thrombin [12]): 30 nM
Ki (Human α-thrombin [13]): 50 nM

B20: MH2-GS (peptide)
peptide: IRFTDGEGTGSGSGSGSGDFEEIPEEYLQ
modifications: ends and bridges not checked
notes: GEGT(GS)4 linker; comparative control
binding result (rat-tail collagen type I [15]): no binding
Ki (Human α-thrombin [12]): 27 nM
Ki (Human α-thrombin [13]): 59 nM
Ki (Human α-thrombin [16]): 60 nM

B21: MH1 (peptide)
peptide: VRFTDGEGTPKPQSHDNGDFEEIPEEYLQ
modifications: ends and bridges not checked
IC50 (assay not given) (Human α-thrombin [11]): ~33 nM

B22: BRI-T207 (peptide)
peptide: FQPRPRFTDGEWTWDDATKTWTWTEGDFEEIPEEYL
notes: also called P4223
Ki (Human α-thrombin [2]): 404 nM

B23: BRI-T219 (peptide)
peptide: WDPRIRFTDGEWTWDDATKTWTWTEGDFEEIPEEYL
Ki (Human α-thrombin [2]): 164 nM
